Changes are numbered by the printed parent chain. In names and notes the source's numbering stands. Values belong to the binder of their own block, whether it stands above or below them.
Biological target: T1, wildtype SARM1 (endogenous, in wildtype mouse dorsal root ganglion neurons) (mouse) (UniProt Q6PDS3)
T1 sequence (looked up): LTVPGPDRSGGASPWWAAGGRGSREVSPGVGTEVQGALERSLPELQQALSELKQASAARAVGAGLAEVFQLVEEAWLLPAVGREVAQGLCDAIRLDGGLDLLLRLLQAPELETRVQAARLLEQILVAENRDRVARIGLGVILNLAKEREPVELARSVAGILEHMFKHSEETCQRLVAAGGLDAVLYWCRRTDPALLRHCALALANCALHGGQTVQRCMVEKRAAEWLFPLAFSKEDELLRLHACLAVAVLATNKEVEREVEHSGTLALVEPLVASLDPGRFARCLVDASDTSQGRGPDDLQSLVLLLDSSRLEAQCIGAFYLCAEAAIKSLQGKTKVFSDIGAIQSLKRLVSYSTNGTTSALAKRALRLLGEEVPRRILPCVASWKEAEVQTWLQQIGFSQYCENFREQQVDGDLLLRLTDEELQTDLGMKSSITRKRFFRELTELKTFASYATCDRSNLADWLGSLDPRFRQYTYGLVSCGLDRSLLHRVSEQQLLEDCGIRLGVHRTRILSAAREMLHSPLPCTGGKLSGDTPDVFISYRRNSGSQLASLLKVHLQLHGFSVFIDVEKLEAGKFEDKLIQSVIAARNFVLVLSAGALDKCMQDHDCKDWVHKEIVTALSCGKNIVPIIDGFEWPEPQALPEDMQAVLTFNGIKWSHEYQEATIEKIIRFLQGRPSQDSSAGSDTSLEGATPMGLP
Assay: cell-based or functional assay

B3: SARM1-E642A (enzyme, not shown: large carriers)
chain: LAVPGPDGGGGTGPWWAAGGRGPREVSPGAGTEVQDALERALPELQQALSALKQAGGARAVGAGLAEVFQLVEEAWLLPAVGREVAQGLCDAIRLDGGLDLLLRLLQAPELETRVQAARLLEQILVAENRDRVARIGLGVILNLAKEREPVELARSVAGILEHMFKHSEETCQRLVAAGGLDAVLYWCRRTDPALLRHCALALGNCALHGGQAVQRRMVEKRAAEWLFPLAFSKEDELLRLHACLAVAVLATNKEVEREVERSGTLALVEPLVASLDPGRFARCLVDASDTSQGRGPDDLQRLVPLLDSNRLEAQCIGAFYLCAEAAIKSLQGKTKVFSDIGAIQSLKRLVSYSTNGTKSALAKRALRLLGEEVPRPILPSVPSWKEAEVQTWLQQIGFSKYCESFREQQVDGDLLLRLTEEELQTDLGMKSGITRKRFFRELTELKTFANYSTCDRSNLADWLGSLDPRFRQYTYGLVSCGLDRSLLHRVSEQQLLEDCGIHLGVHRARILTAAREMLHSPLPCTGGKPSGDTPDVFISYRRNSGSQLASLLKVHLQLHGFSVFIDVEKLEAGKFEDKLIQSVMGARNFVLVLSPGALDKCMQDHDCKDWVHKAIVTALSCGKNIVPIIDGFEWPEPQVLPEDMQAVLTFNGIKWSHEYQEATIEKIIRFLQGRSSRDSSAGSDTSLEGAAPMGPTATT
mitochondrial membrane potential (TMRM fluorescence) in severed axons of wildtype DRG neurons: 24 h

B4: SARM1-H685A/E642A (enzyme, not shown: large carriers)
chain: B3 chain with H658A
axon degeneration after 40 nM vincristine, wildtype DRG neurons: > 120 h

B6: SARM1 K628D (enzyme, not shown: large carriers)
chain: B3 chain with K601D, A615E
axon degeneration after axotomy: 24 h

B8: SARM1 C629S (enzyme, not shown: large carriers)
chain: B3 chain with C602S, A615E
axon degeneration after axotomy: 24 h

B9: SARM1-H685A (enzyme, not shown: large carriers)
chain: B3 chain with A615E, H658A
axon degeneration (degeneration index) after axotomy of wildtype DRG neurons: 72 h

B13: SARM1 D627K (enzyme, not shown: large carriers)
chain: B3 chain with D600K, A615E
axon degeneration after axotomy: 24 h

Results, then the binder that gave them:

axon degeneration (degeneration index) after axotomy of wildtype DRG neurons: 36 h
B1: SARM1-deltaTIR (enzyme, not shown: large carriers)
chain: MLAVPGPDGGGGTGPWWAAGGRGPREVSPGAGTEVQDALERALPELQQALSALKQAGGARAVGAGLAEVFQLVEEAWLLPAVGREVAQGLCDAIRLDGGLDLLLRLLQAPELETRVQAARLLEQILVAENRDRVARIGLGVILNLAKEREPVELARSVAGILEHMFKHSEETCQRLVAAGGLDAVLYWCRRTDPALLRHCALALGNCALHGGQAVQRRMVEKRAAEWLFPLAFSKEDELLRLHACLAVAVLATNKEVEREVERSGTLALVEPLVASLDPGRFARCLVDASDTSQGRGPDDLQRLVPLLDSNRLEAQCIGAFYLCAEAAIKSLQGKTKVFSDIGAIQSLKRLVSYSTNGTKSALAKRALRLLGEEVPRPILPSVPSWKEAEVQTWLQQIGFSKYCESFREQQVDGDLLLRLTEEELQTDLGMKSGITRKRFFRELTELKTFANYSTCDRSNLADWLGSLDPRFRQYTYGLVSCGLDRSLLHRVSEQQLLEDCGIHLGVHRARILTAAREMLHSPLPCTGGKPSGDATT

axon degeneration (degeneration index) after axotomy of wildtype DRG neurons: 36 h
B2: SARM1-K597E (enzyme, not shown: large carriers)
chain: B3 chain with K570E, A615E

axon degeneration after axotomy of wildtype DRG neurons: > 120 h
B5: SARM1-K193R/H685A (enzyme, not shown: large carriers)
chain: B3 chain with K166R, A615E, H658A

axon degeneration after 40 nM vincristine, wildtype DRG neurons: > 120 h
B7: SARM1-K193R/E642A (enzyme, not shown: large carriers)
chain: B3 chain with K166R

axon degeneration (degeneration index) after axotomy of wildtype DRG neurons: 72 h
B10: SARM1-K193R (enzyme, not shown: large carriers)
chain: B3 chain with K166R, A615E

axon degeneration (degeneration index) after axotomy of wildtype DRG neurons: 72 h
B11: SARM1-H685Y (enzyme, not shown: large carriers)
chain: B3 chain with A615E, H658Y

axon degeneration (degeneration index) and TMRM-positive mitochondria after axotomy of wildtype DRG neurons: > 96 h
axon degeneration after 40 nM vincristine, wildtype DRG neurons: > 120 h
axon degeneration and TMRM-positive mitochondria after 40 nM vincristine, wildtype DRG neurons: > 96 h
B12: SARM1-K193R/H194A/H685A (SARM1-compound dominant negative) (enzyme, not shown: large carriers)
chain: B3 chain with K166R, H167A, A615E, H658A
